Data on 37 molecules can be found in patent publication US20110118447A1.

Changes are numbered by the printed parent chain. Numbers in names are those of the source.

B1: C5A (XPA23) light chain variable region S53A (antibody, V domains shown)
VH: EVQLLESGGGLVQPGGSLRLSCAASGFTFSKYFMFWVRQAPGKGLEWVSVISPSGGMTRYADSVKGRFTISRDNSKNTLYLQMNSLRAEDTAVYYCARVGYGGNSDYWGQGTLVTVSS
VL: DIQMTQSPSSVSASVGDRLTIICRASQDINRWLAWYQQTPGNAPKLLIHSATALQSGVPSRFSGSGSGTDFTLTINSLQPEDFATYYCQQADSFPLTFGGGTKVEIK
B2: C5A (XPA23) light chain variable region D92I (antibody, V domains shown)
VH: B1 VH
VL: B1 VL with A53S, D92I
B3: C5A (XPA23) light chain variable region S53V (antibody, V domains shown)
VH: B1 VH
VL: B1 VL with A53V
B4: C5A (XPA23) light chain variable region A91L (antibody, V domains shown)
VH: B1 VH
VL: B1 VL with A53S, A91L
B5: C5A (XPA23) light chain variable region S53I (antibody, V domains shown)
VH: B1 VH
VL: B1 VL with A53I
B6: C5A (XPA23) light chain variable region A91T (antibody, V domains shown)
VH: B1 VH
VL: B1 VL with A53S, A91T
B7: C5A (XPA23) light chain variable region S53T (antibody, V domains shown)
VH: B1 VH
VL: B1 VL with A53T
B8: C5A (XPA23) light chain variable region S53L (antibody, V domains shown)
VH: B1 VH
VL: B1 VL with A53L
B9: C5A (XPA23) light chain variable region A91V (antibody, V domains shown)
VH: B1 VH
VL: B1 VL with A53S, A91V
B10: C5A (XPA23) light chain variable region S53P (antibody, V domains shown)
VH: B1 VH
VL: B1 VL with A53P
B11: C5A (XPA23) light chain variable region D92T (antibody, V domains shown)
VH: B1 VH
VL: B1 VL with A53S, D92T
B12: C5A (XPA23) light chain variable region S53G (antibody, V domains shown)
VH: B1 VH
VL: B1 VL with A53G
B13: C5A (XPA23) VH Y101L (antibody, V domains shown)
VH: B1 VH with Y101L
VL: B1 VL with A53S
B14: C5A (XPA23) VH N104V (antibody, V domains shown)
VH: B1 VH with N104V
VL: B1 VL with A53S
B15: C5A (XPA23) VH S105P (antibody, V domains shown)
VH: B1 VH with S105P
VL: B1 VL with A53S
B16: C5A (XPA23) VH Y107V (antibody, V domains shown)
VH: B1 VH with Y107V
VL: B1 VL with A53S
B17: C5A (XPA23) VH S105F (antibody, V domains shown)
VH: B1 VH with S105F
VL: B1 VL with A53S
B18: C5A (XPA23) VH S105I (antibody, V domains shown)
VH: B1 VH with S105I
VL: B1 VL with A53S
B19: C5A (XPA23) VH S105G (antibody, V domains shown)
VH: B1 VH with S105G
VL: B1 VL with A53S
B20: C5A (XPA23) VH S105A (antibody, V domains shown)
VH: B1 VH with S105A
VL: B1 VL with A53S
B21: C5A (XPA23) VH G103A (antibody, V domains shown)
VH: B1 VH with G103A
VL: B1 VL with A53S
B22: C5A (XPA23) VH N104L (antibody, V domains shown)
VH: B1 VH with N104L
VL: B1 VL with A53S
B23: C5A (XPA23) VH Y107A (antibody, V domains shown)
VH: B1 VH with Y107A
VL: B1 VL with A53S
B24: C5A (XPA23) VH Y101F (antibody, V domains shown)
VH: B1 VH with Y101F
VL: B1 VL with A53S
B25: C5A (XPA23) VH Y101W (antibody, V domains shown)
VH: B1 VH with Y101W
VL: B1 VL with A53S
B26: C5A (XPA23) VH Y107G (antibody, V domains shown)
VH: B1 VH with Y107G
VL: B1 VL with A53S
B27: C5A (XPA23) VH Y107P (antibody, V domains shown)
VH: B1 VH with Y107P
VL: B1 VL with A53S
B28: C5A (XPA23) VH Y107I (antibody, V domains shown)
VH: B1 VH with Y107I
VL: B1 VL with A53S
B29: C5A (XPA23) VH Y101P (antibody, V domains shown)
VH: B1 VH with Y101P
VL: B1 VL with A53S
B30: C5A (XPA23) VH S105V (antibody, V domains shown)
VH: B1 VH with S105V
VL: B1 VL with A53S
B31: C5A (XPA23) VH Y107L (antibody, V domains shown)
VH: B1 VH with Y107L
VL: B1 VL with A53S
B32: C5A (XPA23) VH N104A (antibody, V domains shown)
VH: B1 VH with N104A
VL: B1 VL with A53S
B33: C5A (XPA23) VH Y107F (antibody, V domains shown)
VH: B1 VH with Y107F
VL: B1 VL with A53S
B34: C5A (XPA23) VH G103V (antibody, V domains shown)
VH: B1 VH with G103V
VL: B1 VL with A53S
B35: C5A (XPA23) VH N104G (antibody, V domains shown)
VH: B1 VH with N104G
VL: B1 VL with A53S
B36: C5A (XPA23) VH Y107W (antibody, V domains shown)
VH: B1 VH with Y107W
VL: B1 VL with A53S
B37: C5A (XPA23) VH D106G (antibody, V domains shown)
VH: B1 VH with D106G
VL: B1 VL with A53S

In one experiment the target is binding partner of C5A (XPA23). As to the kind of experiment: Biacore, mutant vs original C5A (XPA23). (In general: In SPR one partner is held on a chip, and binding of the other changes the refractive index at the surface.)
Consider B1, for which the fold difference in affinity in comparison to original was 1.07 fold.
Same read-out and setting: under B2 stands 0.33 fold; under B3, 1.42 fold.
On the same count and under the same terms, the figure for B4 is 0.39 fold.
With B5, the fold difference in affinity in comparison to original came out at 1.42 fold.
On the same count and under the same terms, the figure for B6 is 0.67 fold; for B7 it is 0.95 fold.
Same read-out and setting: under B8 stands 0.99 fold; under B9, 0.51 fold; under B10, 4.92 fold.
For the molecule B11, the fold difference in affinity in comparison to original is 0.34 fold.
Still for that read-out and setting: the figure for B12 is 1.03 fold.

In a further experiment the target is binding partner of C5A (XPA23). As to the kind of experiment: Biacore.
For the molecule B13, the fold difference in affinity vs original amounted to 1.91 fold.
Still for that read-out and setting: the figure for B14 is 1.27 fold.
Still for that read-out and setting: under B15 stands 1.41 fold.
The same measure, in the same setting: under B16 stands 0.93 fold.
In the case of B17, the fold affinity vs original was found to be 1.25 fold.
For B18, the fold difference in affinity vs original was found to be 0.07 fold.
The same measure, in the same setting: under B19 stands 0.12 fold; under B20, 0.84 fold; under B21, 0.03 fold.
On to B22, for which the fold difference in affinity vs original was 1.19 fold.
For the molecule B23, the fold difference in affinity vs original is 0.83 fold.
As for B24, the fold affinity vs original was 0.85 fold.
Still for that read-out and setting: the figure for B25 is 0.81 fold.
Consider B26, for which the fold difference in affinity vs original turned out to be 0.1 fold.
Take B27: the fold difference in affinity vs original is 0.04 fold.
The same measure, in the same setting: the figure for B28 is 0.96 fold; for B29 it is 0.04 fold; for B30 it is 0.08 fold.
As for B31, the fold difference in affinity vs original amounted to 0.86 fold.
The same measure, in the same setting: under B32 stands 1.61 fold.
B33: the fold affinity vs original turned out to be 0.9 fold.
As for B34, the fold difference in affinity vs original turned out to be 2.56 fold.
Same read-out and setting: under B35 stands 1.21 fold.
Turning to B36, the fold affinity vs original is 0.89 fold.
With B37, the fold difference in affinity vs original is 0.03 fold.

The next experiment concerns the target binding partner (antigen) of C5A (XPA23). As to the kind of experiment: Biacore, K-off, fold vs original.
On to B13, for which the fold difference in affinity vs original is 1.91 fold.
On the same count and under the same terms, the figure for B14 is 1.27 fold; for B15 it is 1.41 fold.
Consider B16, for which the fold difference in affinity vs original turned out to be 0.93 fold.
On the same count and under the same terms, the figure for B17 is 1.25 fold; for B18 it is 0.07 fold; for B19 it is 0.12 fold.
Same read-out and setting: the figure for B20 is 0.84 fold; for B21 it is 0.03 fold; for B22 it is 1.19 fold.
Still for that read-out and setting: under B23 stands 0.83 fold; under B24, 0.85 fold; under B25, 0.81 fold.
Take B26: the fold difference in affinity vs original was found to be 0.1 fold.
Still for that read-out and setting: under B27 stands 0.04 fold.
The same measure, in the same setting: the figure for B28 is 0.96 fold; for B29 it is 0.04 fold.
In the case of B30, the fold difference in affinity vs original came out at 0.08 fold.
With B31, the fold difference in affinity vs original stood at 0.86 fold.
On the same count and under the same terms, under B32 stands 1.61 fold.
For B33, the fold difference in affinity vs original came to 0.9 fold.
Still for that read-out and setting: under B34 stands 2.56 fold; under B35, 1.21 fold.
With B36, the fold difference in affinity vs original came to 0.89 fold.
The same measure, in the same setting: the figure for B37 is 0.03 fold.
